Data from a protein production outcome set (Wang et al. 2014).

Assay: label from the status in PepcDB records

Row | Sequence | protein production
1 | MPWIQVYTPVAGSLGLSALVAAIPLVVIFVCLALFKMKAHKAGLLALASAMLIAITVWGMPAKLAGLATAQGAAFGLFPVFYIVITTIFLYNITVKGGQFEIIRASLAGVTADRRLQALLIAFCFGAFIEGAAGFGTPVAIAGATLAGLGFQPLYAAGVCLVANTAPVAFGAIGIPIVALAGVMGYGDDGMMKLSTMVGRQLPFISVIIPFYVIMIMVGWKKTIEILPAIIVCGVTFALSQWATATYLGPYLPDVTASLASIIALVLLLRVWQPKTIYTFAHEAPVTGATEHHYTTGEVFRAWSPYLALTVMVLLWGIPSIKTVLDKSTVEIEVKGLHNMIVKKVAKPEDTLTKIAAASAEIDRQLTLLSPADPKQAAIAAKLMELKAFETQLAAVEQGLVGQGAVLTDERLKACDIVSKKMAETQKLCKELVKTAAVPANQFKPLDKALADHLPLKVAAKYKFNFMSAAGTAILIAAFLSALICGVGFADTFRILGKTLYDMRFPALTVASVLGLAYVMNASGMTNCLGLIFTKTGHWFPFIAPFLGWLGVFLTGSDTSSNVLFGGLQKATAEQLGISPILTGAANTSGGVMGKMISPQSLAVATAATGMVGEEGTLFRFTLKHSIFLTILVGIIVYLQAYVLQWMIP | failed
2 | MPYERKIINDPVFGFINIPKGLLYDIVRHPLLQRLTRIKQVGLSSVVYPGAQHTRFQHSLGAFYLMSEAITQLTSKGNFIFDSEAEAVQAAILLHDIGHGPFSHVLEDTIVQGVSHEEISLMLMERMNKEMNGQLSLAIQIFKDEYPKRFLHQLVSGQLDMDRLDYLRRDSFYTGVTEGNIGSARIIKMLDVADDRLVIESKGIYSIENFLTARRLMYWQVYLHKTSVAYERMLISTLLRAKELASQGVELFASPALHFFLYNDINHTEFHNNPDCLENFIQLDDNDIWTALKVWSNHPDKVLSTLSLGMINRNIFKVENSAEPIGEDRIKELTLQISQQLGITLSEANYFVSTPSIEKNMYDPADDSIDIIYKDGTIKNIAEASDMLNISLLSKKVKKYYLCYQRLHR | not failed
3 | MPYFLIHNKNDNVGVAIADIKTGQEVEGIYIEDMTQGPKIKAISDIPLGHKIALKDIRQSDIVIKYGRPIGSAIKDIKVGEHVHVHNIRSNRWGKWKNQ | not failed
4 | MPYTLQHLESEAALAASFDLMRVLRPHLTSPAAYVAQWARQTEQGYRLLAAWDAERIVGLAGYRELENLLYGRFIYVDDLVVSPDLQRSGLGARLLSAVRDEAVQRQCEHFVLDTGLHMPLAQRFYFRQGLLARGMHFTQRLE | failed
5 | MQAGQVATNDLTISGIVNTVPASAVFAREANPVKVLNVKNTGDETLSNISIAVYASDVSSGTVPVDTTTIASLAGDATTTVTLIDPTIRDLEGGTVTYTAVVDPDNLIAETDETNNNKSSLEHHHHHH | failed
6 | MQAKSEAKLAIGVIGCGNISMTYLRNAALFGGIELRACADISADMAALRAKEYGIQALGVDALLSDPEIDLVLNLTIPAAHFDISLSALSAGKHVFTEKPLATSAGDGRRLVAEAAKRGVLLGSAPDTFLGAAGRRARRLMDEGAIGRPVTGTAFMMGRGMEHWHPNPQFYYQPGGGPVFDMGPYYLTMLVNLLGPVARVMAMATRGQEERLITAEGPFKNTTFKVGTPTNVLSLLEFRSGATVTFGASWDVFKHSNHPIELHGTEGSLRLPDPDTFGGTVSLSERGADWKDFAGEGELYGARNWPYAAPDRANYRMLGVADLVRSLKTGAVPRASGNLALHVLEIMEAILHSGETKSAVAIAGDVVQPALLTEDEANSLLA | failed
7 | MQAQDATQLLEGVPLPLVLIGPDERIRAANAPAQRLFGAASVARHYVMAMRQPALLDAIEGAIRLDRPGRARYIITGPSREVTYRATVTPVRIHGESCALCAFEDITEQEQMGAIRRDFVANVSHELRTPLTALLGFIETLQGAARDDPAARSRFLGIMAREAGRMNRLVQDLLSLSRVESEERVRPKTPVDVTAVIGQAIAALRPMAEAAGVEIQRQGEAGPILLPGDPDQLTQVFHNLIENAVKYGASGKLVTVGISRDAEGLARLGPAVRIEVVDRGEGIDAIHLPRLTERFYRVDNHRSREKGGTGLGLAIVKHIVNRHRGRFLIESELGQGSRFIVTLPLA | failed
8 | MQAVRLFQGYLWHPRALALDLKALLPGEVAGARLLWDEVPPPTPFFEDGTPTHTQRFYQLTLLVLTEEPPEALKPLAEEAAEALGEVLEGLPPEVGWLLLEDLRPL | not failed
9 | MQAYIDRIGDFIQANQDWAGPITFLLTFGESMVLVGLLIPATALMLLTGGLIGAGTLSPWGVLAWGIAGAIAGDAVSYALGRWLGPGVMRRWPLNTQRSAVARARLFFYRYGFASVLIGRFLGPIRSTIPTVAGIMGMHHLRFQLANVLSAVAWLPLMLAPGYITARGLGAMDNAQHIGLAAGMGASVLIGCWLLVAVMRKRRQPARANRRP | not failed
10 | MQCNICEVRCEINKHSTGRCGTYVSTGNTITQYPGMGYMGAYPISIEEVPLHHFYPSGKFLQIFSKGCNFQCPGCAARMPASSEPSTQQASLSPSEVVKRALKQECLGVVSTLNDPVANYYLFRDLAIQAQEKSLLVGCSTNCYFTSETLEEFGQLVDFVNVGIKGYSDRGYRNCGVTSSAPVFRNISRLFDMGVHVETSIAYSRGNEEDVIKVAEAVSDISPTIPLHVMRFLPFGYAPIELEPSIGEAEKICSDLRRYLDFVYLFNSPGTELLNTYCPECGRLLIEREFHRPFGSRLVKPWLSHKCSCGCSIPVQGKAPTEGFSEAGLMDSYSISQAFSMVHAVLTCLGVLDDYKLMDIWGEDKLMDVWSKVSNPKTLMQIHNMIRQPYSYLEFIKFIAEKANMPEKGEELVSFIHKRLQIVQNLSAGKSSYYVYYCMGSPFFALNAGRMENNLVTFSGGVSINKQLQKEGKLGVSVSPSFINEHNPGVIFVSGFLSRPLDEFYALCQKYGIHADAVTQHRVYEIPPSWDFGSPRWILGLMYITDKLHPGKLEVDLKKEADDFYLQFYGMRFKEARPNRSFHRPSSGIWPHTQTLYNYFEMEVPNQDSTKNFGNEITQPFNILPTCKIKLKE | failed
11 | MQCPIEDRLAIQDLMIAYAHAVDTVSDIDAVLDVFTEDAVFDLSGIGLTPQVGHAGIREFFTNVFANMSHHAHYLTNFAVTGYEGDTASMRAYVIGMGVGKDGRAVTVNGRYFFEVRRTEKGWKATRYTMDFLMPLSGTLDNAK | not failed
12 | MQDHIISFTAGILSVLSPCILPVIPVIFSESLIGNRKERFLFLSGFSSLFLFTIILTAIFTAAVNYYLLYLRVPASIMLIIMGLLVLSEKPLISIRTPPAENHVLMGLLTAIAWTPCYSPYLIGVIAYSAYTGIPGALVNMALYTLGLTITLIAVTLLAEPVLRRLLRGSRDIRRASGVLIVVAGIYMLYQLIPLP | failed
13 | MQDLIKQYNTTLRQLREAQKDAKEEDVKVLTDMISDITYSLEWMKKARRPGNRRGVERLAAYQRERACDPLLMQRYFRSMDDNLYEWDNHQQEHSIGEWDKVRLEDALSLLTEREKEVYLMSRGYCLTYREIARYLDITCSTVQSMIERAEKKIARQVNESLFCNCG | failed
14 | MQDSKIPPFSEAKRMKIPTPKQPLTQLPPRIGKKVSNRSKSNQVHAISHQLEMSPNSDSSPGNEYRALRRKYLLLEEDSFALERELKEAEDEVKALEDEKLELLDKLVVMEGLVDP | failed
15 | MQDVLVIFAFFIILLSIVIALIKDLSSWVYITILLAIASWLLLFPQILSPYVVGIDAHFEHIIAEETLRTGHWDPDLSGNIVNAALSITILTPFISIVSGIPLDWVLKIILTIYPLISIPIIWKSNIHILSFSNRESFLSLLLLIGTSSFMLISVYGRQEVGLFSGLVLLYFLHFKKSSVQLSIVLIFLVIGLIFSHYSTAIILIITYAISSLFLYLFQRDKCSMRLVLFSIVFMVFWLILIVYASMASISHSFNFIYLSILDWATENSSIVVEQQLNPTFYNIFQSLNYVINIFIIIFLVIGTSYLVYSRVVKSKLESEENKKYFIFAFLSSIYILLSVLPGFSSVYNAERIYLTTLYLFSGFSLIGFKRVFVYIVTFFTKFSPIYLKKSNKYIFVVFSFFVLVHFVLQVGILPMLYYGDTNSKYFGDISEDRHYTLEEEVYAVNWLQGINNNNRIYTDFYGRGRLPLRSYGNIPTSQIVDLKEIGPTTLNLRNIIFYQQKKELNDEVSSKNFEQIEEINNFLQKYGSTLYNSGMTEVKVINLNS | failed
16 | MQEIIIQVMNQFGYFGVAFLIMIENIFPPIPSEVILTFGGFMTTYSELGIIGMIIAATIGSVLGALILYFVGRLLSVERLEKLVSGRLGKVLRLKPEDITKAEKWFLKRGYATIFFCRFIPLIRSLISIPAGSAKMKLPSFLILTTLGTLIWNIVLVCLGAALGDNWEMIAGILDSYSSVVVVILGIIFILAILIFVKKRFFPKNKNYSSDTEK | not failed
17 | MQFLPILFVLLASGSFLSYTLSSYAIGNGTANIYHYVLNATSTGTEYNVSVFLNWSYSNLYEYVNKYDYSTFHKNFQVPDLYYIFYHSNPSTLAYILLFNNVTLTTYNLGGNQIPAIKFYNGDNYLTVSAQYGVMLQGFAKNYAGPSAGTLNVSISLNSYKNLPSFVSNANMYTLNVSFMPNPSALSYTLYLVSPEAKISGSNMYVSKEISIAYLSILSKGFTTIIIPSAYSIVRPIGEVIINQTNYYYFYLNGTLTYYGTYFTPKYYNSTTPFTIDTIGKYIVIFFPTGGNITVFLNNGNNPLYGVKVTGETGNKNTPLSLYLIIIGVVIVLVVAIIVLRFRKVF | failed
18 | MQFTDGGKEVELRLRLKTGEILSPKDISVDADGTSLAVKEKRNGLLITLLETNHLFEKIMPSETIWYIDEDQLVVNMKKVDGELKWPDIVESWESLTAGMMQLLKGASIYIVGDSTEINQKVSRELAVGLGYSPLDSKELLESFSKQTIDSWILAEGPDSVAEAESSVLESLSSHVRTVVSTLGGKHGAAGRADQWRHLYSGFTVWVSQTEATDEESAKEEARRSKQEREIGYSNADVVVKLQGWDPTHAKSVAQASLSALKQLIISDKGLPGNK | failed
19 | MQGFLRSLFFGVKKIPKPFAPLVEKGVLKEALELKKDRYFLKEGFDIGKVEKVKDKAFFISLAKNYPKDPLIKNLPPSFKTDALILCQIECSKKRPIAFFKAALLNADHTMIAYLAKKNNQIVAIPFKEPFKKPVSLKHSQKSLLELPRHCVVKIDTKKREISEILGALEDPLIDENLSLSLFDRVKDFSKDCLNLAQHYAQLKASDFKDRINYSHIPFITIDPKDAKDFDDAIFYDQEKRVLFVAVADVSEFVPKHSSLDKEARVRGFSVYFPNSVYPMLPLSLSQGACSLKAFEKRLALVYEIPLDNLKNARLSQGVIEVRANCTYEEINHFLSANQSSLDKDLQQSLLGFLEMALKLKKERLKKGFNFNSFENKLYLNKEGRIEKIETEKESDAHTLIEEAMLLANQSSARLLDEHFHNKGIYRTHKEPSLEQQKRLYDKLFDYEIVRPKNMGFFPFLEHALKIAKEKSIEREVSRLIIKSQNLALYSPLQESHFGLGFASYTHFTSPIRRYSDLALHRLLKELLFYQAKGCSYLLEETPELCAELNALQKKAALIERDFIKRKFARLALELLEKEFLGVVLEVKDWVVVGLKEFIGLKVLVKTNKVFKPLEKVRVTITHADLILGQVRGEITERIKEHVS | failed
20 | MQGGRFMGNKNLIITIEREYGSGGRIVGKKLAEELGIHFYDDDILKLASEKSAVGEQFFRLADEKAGNNLLYRLGGGRKIDLHSKPSPNDKLTSPENLFKFQSEVMRELAESEPCIFVGRAAGYVLDQDEDIERLIRIFVYTDKVKKVQRVMEVDCIDEERAKRRIKKIEKERKEYYKYFTGSEWHSMKNYDLPINTTKLTLEETAELIKAYIRLKGFMD | not failed
21 | MQGGSSGIGYGLKYQSRCISDVKADTDYTSFLTGTLSLKEENEVHLLRLSSGGSELICEGLFSHPNEIWDLASCPFDQRIFSTVFSTGESFGAAIWQIPELYGQLNSPQLERVASLDAHVGKINCVLWWPSGRCDKLISIDEQNIFLWSLDCSKKSAEVLSKDSAGMLHSLSGGAWDPHDVNAVAATGESSVQFWDLRTMKKVNSIEHAHVRGVDYNPKREHILVTAEDESGIHVWDLRKAKVPVQELPGHTHWTWAVRCNPEYDGLILSAGTDSVVNLWYASATSSDDKTSESPVESTRQRVNPLLNSYTDYEDSVYGLAWSSREPWVFASLSYDGRVIIESVKPFLPRI | failed
